# Experiments:
# Human VSIG4-L-Fc (human) [1] = experiment: BLI cross-blocking on hVSIG4-L-Fc, competitor 12A12 first
# Human VSIG4-L-Fc (human) [2] = experiment: BLI cross-blocking on hVSIG4-L-Fc, competitor 14C05 first
# Chain of Human VSIG4-L-Fc (human) (chain, as listed by the source limits assumed): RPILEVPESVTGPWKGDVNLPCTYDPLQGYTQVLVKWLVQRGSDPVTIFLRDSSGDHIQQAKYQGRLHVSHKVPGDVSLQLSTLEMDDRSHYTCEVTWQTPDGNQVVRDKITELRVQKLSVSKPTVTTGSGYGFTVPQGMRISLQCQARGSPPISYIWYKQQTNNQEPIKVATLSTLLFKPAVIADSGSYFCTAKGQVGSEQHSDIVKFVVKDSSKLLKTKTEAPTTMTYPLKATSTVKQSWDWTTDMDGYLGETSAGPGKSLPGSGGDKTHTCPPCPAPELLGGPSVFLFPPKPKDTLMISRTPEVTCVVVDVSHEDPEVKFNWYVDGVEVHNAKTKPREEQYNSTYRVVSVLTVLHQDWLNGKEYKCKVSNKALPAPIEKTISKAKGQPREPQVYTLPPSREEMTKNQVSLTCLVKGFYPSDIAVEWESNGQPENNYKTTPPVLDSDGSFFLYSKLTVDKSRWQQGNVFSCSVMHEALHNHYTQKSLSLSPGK
substance,measurement,setting,value
isotype control antibody (Table 16),binding signal (nm shift),Human VSIG4-L-Fc (human) [1],0 nm
same,binding signal (nm shift),Human VSIG4-L-Fc (human) [2],0 nm

# From patent US20230348603A1
